Assay results from patent US20070269808A1 (published 2007).

Columns and labels:
[1] = molecular target: T1, Notch (UniProt P07207 53-2703, limits assumed); assay: confocal immunofluorescence of cells incubated with Wg conditioned medium, anti-Wg antiserum and cy3 secondary antibody
T1 construct: whole, on cells

[2] = molecular target: Drosophila frizzled 2 (Dfz2) (Drosophila), Q9VVX3; assay: confocal immunofluorescence, human 293 cells transiently transfected with Dfz2, pretreated with chlorate and heparatinase
Chain of Drosophila frizzled 2 (Dfz2) (Drosophila), Q9VVX3 (Q9VVX3 other isoform, or with tags, fused parts or gaps limits assumed): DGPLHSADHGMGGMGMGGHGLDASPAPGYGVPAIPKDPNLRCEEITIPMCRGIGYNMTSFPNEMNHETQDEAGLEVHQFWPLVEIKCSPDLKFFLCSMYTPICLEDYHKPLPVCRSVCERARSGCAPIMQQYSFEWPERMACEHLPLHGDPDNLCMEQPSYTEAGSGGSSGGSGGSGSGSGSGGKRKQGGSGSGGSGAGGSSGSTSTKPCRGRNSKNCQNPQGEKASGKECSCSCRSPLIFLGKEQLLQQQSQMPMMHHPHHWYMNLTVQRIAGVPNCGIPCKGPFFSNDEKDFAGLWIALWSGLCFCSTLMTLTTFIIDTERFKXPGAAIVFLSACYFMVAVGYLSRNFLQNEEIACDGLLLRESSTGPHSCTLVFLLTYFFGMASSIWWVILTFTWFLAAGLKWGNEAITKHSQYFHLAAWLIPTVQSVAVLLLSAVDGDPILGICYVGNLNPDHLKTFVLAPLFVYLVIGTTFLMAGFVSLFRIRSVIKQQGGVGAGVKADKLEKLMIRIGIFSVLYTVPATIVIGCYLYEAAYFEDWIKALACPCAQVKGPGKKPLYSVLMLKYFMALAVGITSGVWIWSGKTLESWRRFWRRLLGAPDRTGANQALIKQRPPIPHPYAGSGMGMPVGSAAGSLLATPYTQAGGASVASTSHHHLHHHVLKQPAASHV

[3] = molecular target: Drosophila frizzled 2 (Dfz2) (Drosophila), Q9VVX3; assay: confocal immunofluorescence, Dfz2-transfected S2 cells incubated with Wg conditioned medium, anti-Wg antiserum

T1 sequence (P07207 53-2703 limits assumed): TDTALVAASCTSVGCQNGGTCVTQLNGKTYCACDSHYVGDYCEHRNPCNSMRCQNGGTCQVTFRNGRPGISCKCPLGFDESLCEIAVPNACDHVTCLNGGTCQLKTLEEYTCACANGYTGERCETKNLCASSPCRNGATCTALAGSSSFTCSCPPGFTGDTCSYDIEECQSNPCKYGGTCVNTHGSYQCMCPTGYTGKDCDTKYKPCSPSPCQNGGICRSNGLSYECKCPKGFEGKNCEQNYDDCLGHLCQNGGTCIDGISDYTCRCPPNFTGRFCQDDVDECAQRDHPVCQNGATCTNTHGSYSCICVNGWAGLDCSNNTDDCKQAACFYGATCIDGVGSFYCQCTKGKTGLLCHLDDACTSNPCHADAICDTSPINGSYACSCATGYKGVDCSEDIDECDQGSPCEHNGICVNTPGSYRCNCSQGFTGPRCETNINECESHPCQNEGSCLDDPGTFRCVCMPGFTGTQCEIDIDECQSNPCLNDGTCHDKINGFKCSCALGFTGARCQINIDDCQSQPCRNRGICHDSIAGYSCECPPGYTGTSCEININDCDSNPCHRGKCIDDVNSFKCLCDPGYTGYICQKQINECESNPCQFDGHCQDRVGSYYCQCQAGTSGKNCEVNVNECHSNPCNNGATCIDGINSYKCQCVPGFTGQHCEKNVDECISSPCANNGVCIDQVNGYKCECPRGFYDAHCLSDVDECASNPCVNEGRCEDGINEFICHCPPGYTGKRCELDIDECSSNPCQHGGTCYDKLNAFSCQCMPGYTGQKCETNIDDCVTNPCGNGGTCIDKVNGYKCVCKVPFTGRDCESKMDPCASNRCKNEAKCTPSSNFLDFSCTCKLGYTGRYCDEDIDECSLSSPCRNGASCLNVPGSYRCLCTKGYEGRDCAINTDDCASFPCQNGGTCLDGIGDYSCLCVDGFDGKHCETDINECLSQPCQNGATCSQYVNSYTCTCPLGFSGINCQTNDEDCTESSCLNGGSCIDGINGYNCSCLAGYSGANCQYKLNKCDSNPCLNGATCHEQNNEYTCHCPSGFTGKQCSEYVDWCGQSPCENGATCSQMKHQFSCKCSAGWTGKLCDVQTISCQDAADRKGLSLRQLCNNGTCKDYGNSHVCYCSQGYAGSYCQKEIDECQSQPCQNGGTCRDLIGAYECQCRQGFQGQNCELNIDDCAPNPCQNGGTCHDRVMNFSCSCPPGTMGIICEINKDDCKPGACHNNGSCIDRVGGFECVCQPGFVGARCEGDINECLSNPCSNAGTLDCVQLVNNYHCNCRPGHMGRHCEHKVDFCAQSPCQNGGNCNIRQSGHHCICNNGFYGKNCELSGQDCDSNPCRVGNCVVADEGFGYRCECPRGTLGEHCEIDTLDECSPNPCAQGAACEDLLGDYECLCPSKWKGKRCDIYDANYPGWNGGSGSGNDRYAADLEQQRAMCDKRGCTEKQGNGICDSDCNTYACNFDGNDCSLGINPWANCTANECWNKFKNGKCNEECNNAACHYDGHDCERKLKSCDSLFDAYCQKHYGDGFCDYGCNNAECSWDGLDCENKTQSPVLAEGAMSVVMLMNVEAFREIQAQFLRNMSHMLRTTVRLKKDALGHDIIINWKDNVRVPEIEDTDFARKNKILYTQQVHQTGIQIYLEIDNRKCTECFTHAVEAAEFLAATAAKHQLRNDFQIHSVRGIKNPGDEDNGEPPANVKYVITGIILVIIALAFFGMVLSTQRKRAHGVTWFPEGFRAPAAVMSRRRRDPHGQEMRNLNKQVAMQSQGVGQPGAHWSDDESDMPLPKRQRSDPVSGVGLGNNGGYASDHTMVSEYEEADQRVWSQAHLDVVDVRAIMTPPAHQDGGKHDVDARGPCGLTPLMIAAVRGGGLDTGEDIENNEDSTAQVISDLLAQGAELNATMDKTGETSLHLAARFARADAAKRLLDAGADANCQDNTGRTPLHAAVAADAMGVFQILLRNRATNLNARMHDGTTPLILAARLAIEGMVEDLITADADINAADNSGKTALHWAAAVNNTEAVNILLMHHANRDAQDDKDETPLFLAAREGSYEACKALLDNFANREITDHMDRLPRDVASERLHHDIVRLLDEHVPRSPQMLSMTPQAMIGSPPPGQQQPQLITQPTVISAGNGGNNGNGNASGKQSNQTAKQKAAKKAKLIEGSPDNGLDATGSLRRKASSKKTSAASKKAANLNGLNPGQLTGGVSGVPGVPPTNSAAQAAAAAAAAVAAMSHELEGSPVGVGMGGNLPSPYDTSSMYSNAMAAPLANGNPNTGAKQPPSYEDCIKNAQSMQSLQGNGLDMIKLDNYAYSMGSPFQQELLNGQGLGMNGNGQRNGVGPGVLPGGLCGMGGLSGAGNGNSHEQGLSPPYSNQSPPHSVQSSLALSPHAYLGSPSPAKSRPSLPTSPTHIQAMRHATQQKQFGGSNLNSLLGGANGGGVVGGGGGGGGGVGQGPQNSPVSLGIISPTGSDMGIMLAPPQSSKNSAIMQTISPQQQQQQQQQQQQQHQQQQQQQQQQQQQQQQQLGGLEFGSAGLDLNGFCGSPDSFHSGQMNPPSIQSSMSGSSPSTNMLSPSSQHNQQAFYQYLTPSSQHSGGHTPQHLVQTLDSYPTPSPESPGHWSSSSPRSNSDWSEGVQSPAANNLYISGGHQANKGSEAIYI

binding result [1]: no binding
percent of transfected cells positive [2]: 10 to 20%
percent of cells stained [3]: 80%
B1: wingless (Wg) protein (ligand, Drosophila, UniProt P09615 18-468, looked up)
chain: GSSLSQVEGKQKSGRGRGSMWWGIAKVGEPNNITPIMYMDPAIHSTLRRKQRRLVRDNPGVLGALVKGANLAISECQHQFRNRRWNCSTRNFSRGKNLFGKIVDRGCRETSFIYAITSAAVTHSIARACSEGTIESCTCDYSHQSRSPQANHQAGSVAGVRDWEWGGCSDNIGFGFKFSREFVDTGERGRNLREKMNLHNNEAGRAHVQAEMRQECKCHGMSGSCTVKTCWMRLANFRVIGDNLKARFDGATRVQVTNSLRATNALAPVSPNAAGSNSVGSNGLIIPQSGLVYGEEEERMLNDHMPDILLENSHPISKIHHPNMPSPNSLPQAGQRGGRNGRRQGRKHNRYHFQLNPHNPEHKPPGSKDLVYLEPSPSFCEKNLRQGILGTHGRQCNETSLGVDGCGLMCCGRGYRRDEVVVVERCACTFHWCCEVKCKLCRTKKVIYTCL
notes: mature; Used as concentrated conditioned medium, not purified; It was detected as bands of about 52 kD, 'the size of the mature Wg protein'; also called soluble Wg protein; metabolically labeled Wg protein
